From the supplement of paper PMC10567573 come the findings set out here.
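Also: lentivirally expressed fusion library, cells FACS-sorted into six equal-sized GFP/DsRed ratio bins, PSI computed from sequencing read fractions per bin weighted by bin number.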

The first data set in a line: protein stability index of a GFP-peptide fusion (GPS, HEK-293T) (PSI 1-6); higher = more stable. Conditions: parent: NP_116010.1; c terminus: native.
For the protein HSLRAVSTDPPHHDHHDEFCLMPM [BEX2 addM], the protein stability index was found to be 3.52. Turning to HSLRAVSTDPPHHDHHDEFCLMPD [BEX2 addD], the protein stability index worked out at 4.42.

Still in this data set, the particulars now being: parent: NP_015628.1; c terminus: native.
On to EQRNSRWNTVLRAVKAKTHHLEPD [TRPA1 addD], for which the protein stability index was 3.91. Take EQRNSRWNTVLRAVKAKTHHLEPM [TRPA1 addM]: the protein stability index is 4.79.

Still in this data set, the particulars now being: parent: NP_002788.1; c terminus: native.
As to DGWIRVSSDNVADLHEKYSGSTPM [PSMB5 addM], the protein stability index worked out at 2.89. The same measure, in the same setting: the figure for DGWIRVSSDNVADLHEKYSGSTPD [PSMB5 addD] is 4.37.

The data set is the same for the next values; noted with them: parent: NP_006221.1; c terminus: native.
CQPISFSGFGAEDDDLGGLGLGPM [POLD2 addM]: the protein stability index came out at 2.38. As to CQPISFSGFGAEDDDLGGLGLGPD [POLD2 addD], the protein stability index was found to be 2.2.

The data set is the same for the next values; noted with them: parent: NP_009172.2; c terminus: native.
Take LPALFTDLYSQEITAEEAREALPD [SNF8 addD]: the protein stability index is 5.09. Still for that read-out and setting: the figure for LPALFTDLYSQEITAEEAREALPM [SNF8 addM] is 3.04.
